{
  "source": "paper PMC3298681",
  "about": "(Molecular Cell, 2011)",
  "molecular_target": "the molecule itself",
  "data": [
    {"protein": "DgcB (CC1850), purified (enzyme, Caulobacter crescentus, UniProt Q9A776 1-353, looked up) MSDVETTLRGPEAYKIASRALELMERHQVWPTALNFELWTHYVADPNGALARELTRLISLGEPMTELVSEELAATFLPKARLNEQIRDAGDILSKELEAVSKAIQNAQKSNAAFGQELAGASKSLDTHTDVASIKAVVGSIAEATRRVHKENQSLEARLADSTAEVERLREHLEQVRRDATTDGLTNLANRKAFDDELDRACAEAEEGGTTICLAVLDIDHFKGFNDTWGHQTGDQVIRYVASVIGRVAAPPRFAARYGGEEFAMIFPREAASVVATTLEEIRVEVSSRMLKRRSTNEDLGAITVSSGFAERKPGESGHSVMERADAALYASKRGGRNRVTAAESMPGAANAA", "values": [
      {"measurement": "stoichiometry N", "value": 2}
    ]}
  ]
}
